Measured values: paper PMC4995489, “Staphylokinase has distinct modes of interaction with antimicrobial peptides, modulating its plasminogen-activation properties” (Scientific Reports, 2016)
Substitutions are numbered along the chain they refer to. Entries after “also recorded” stand apart in the source; their conditions may differ. Bridges are numbered along the chain shown (N, C = ends). Where no end group is shown, it is not given here.

Assays:
[1] = biological target: T1, staphylokinase (Sak, full-length, sakSTAR sequence, C-terminal His6-tag) (Staphylococcus aureus, UniProt Q99SU7); assay: ITC of antimicrobial peptide binding to full-length staphylokinase; settings: 25 °C, 200–400 μM peptide titrated into 8 μM Sak, 20 mM HEPES pH 7.4, One Set of Sites model, at least two experiments
T1 construct: Staphylokinase contains 136 amino acids and has a molecular weight of 15.5 kDa; made in house; host or cells: E. coli BL21 (DE3), pET29b, synthetic gene from GeneArt
T1 sequence (Q99SU7 28-163): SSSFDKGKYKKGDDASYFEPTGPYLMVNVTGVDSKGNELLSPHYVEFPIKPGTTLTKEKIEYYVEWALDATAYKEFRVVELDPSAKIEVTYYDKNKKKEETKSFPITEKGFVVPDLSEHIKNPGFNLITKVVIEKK
Experimental: (§1) Most peptides were purchased from Genscript (Piscataway, NJ) as custom-synthesized peptides synthesized using standard 9-fluorenylmethyoxycarbonyl (Fmoc) chemistry and they were purified by HPLC to >95% purity. […] The concentrations for most of the peptides were determined by UV absorption at 280 nm using molar extinction coefficients determined by ProtParam[54].
(§2) A synthetic gene for staphylokinase with optimized codons for expression in Escherichia coli was purchased from GeneArt (Life Technologies). Staphylokinase genes have been cloned and sequenced from different origins: the bacteriophages sakφC and sak42D, and the genomic DNA of a lysogenic S. aureus strain (sakSTAR)[56]. These indicate amino acid sequence differences at three positions in the coding sequences. In this study, we have worked with the sakSTAR protein sequence as it is the most commonly used variant. The gene was subcloned into a pET29b (Novagen), giving the expressed protein a C-terminal His6-tag when expressed in E. coli BL21 (DE3) cells.
(§3) All ITC runs were performed at 25 °C on a MicroCal VP-ITC microcalorimeter (Malvern, Westborough, MA). 200–400 μM peptide was titrated into 8 μM SakΔN10 or Sak in 20 mM HEPES, pH 7.4. […] Data analysis was performed using the MicroCal Origin software using the “One Set of Sites” binding model. At least two experiments were performed for each titration. Statistical analysis was performed to confirm the statistical validity of the differences in the KD values determined for LfcinB and Tritrp binding to SakΔN10 or Sak. p-values were calculated from Student’s t-tests at the 95% confidence level with a one-tailed hypothesis.

[2] = biological target: T2, SakΔN10 (staphylokinase with its first ten residues deleted, C-terminal His6-tag) (Staphylococcus aureus, UniProt Q99SU7); assay: ITC of antimicrobial peptide binding to SakΔN10; settings: 25 °C; for Kd / KD: 200–400 μM peptide titrated into 8 μM SakΔN10, 20 mM HEPES pH 7.4, One Set of Sites model, at least two experiments
T2 construct: Staphylokinase contains 136 amino acids and has a molecular weight of 15.5 kDa; made in house; host or cells: E. coli BL21 (DE3), pET29b
T2 sequence (Q99SU7 38-163): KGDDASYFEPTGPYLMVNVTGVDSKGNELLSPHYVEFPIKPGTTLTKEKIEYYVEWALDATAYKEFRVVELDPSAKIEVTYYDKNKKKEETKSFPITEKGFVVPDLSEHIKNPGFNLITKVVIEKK
Experimental: as §1, §2, §3

[3] = tested on: Sak-dependent plasminogen activation; settings: mCRAMP expression upregulated during staphylococcal pneumonia, intranasal infection mouse model; cited from earlier work
Excerpt: In the present study, our aim was to evaluate staphylokinase as a more general interacting partner for antimicrobial peptides of different structures and origin. […] It is possible that additional factors may be involved in promoting its binding in vivo.

[4] = biological target: T3, Staphylokinase (full-length Sak, sakSTAR sequence) (Staphylococcus aureus, UniProt P68802 28-163); assay: ITC + NMR titration; ITC of mCRAMP into full-length Sak repeated at 37 °C, together with the NMR titration data; not shown; settings: both partners purified
T3 construct: also called wtSak; full Sak; not shown: His6, C-terminal, kept
T3 sequence: T1 sequence (Q99SU7 28-163) with S34G

[5] = biological target: T4, SakΔN10 (staphylokinase with its first ten residues deleted) (Staphylococcus aureus, UniProt P68802 38-163); assay: ITC; 200-400 μM peptide titrated into 8 μM Sak or SakΔN10 in the cell; 25 °C; 20 mM HEPES, pH 7.4, no salt; One Set of Sites model; at least two experiments each; settings: both partners purified
T4 construct: not shown: His6, C-terminal, kept
T4 sequence: T2 sequence (Q99SU7 38-163) with S24G

[6] = biological target: T3, Staphylokinase (full-length Sak, …); assay: as above; settings: both partners purified
[7] = biological target: T4, SakΔN10 (staphylokinase with its first …); assay: as above; settings: both partners purified; remark: listed apart in the source
[8] = biological target: T3, Staphylokinase (full-length Sak, …); assay: as above; settings: both partners purified; remark: listed apart in the source

## CC[C@H](C)[C@@H]1NC(=O)[C@H](CO)NC(=O)[C@@H]2CCCN2C(=O)[C@H](C)NC(=O)CNC(=O)[C@H](CC(C)C)NC(=O)[C@H](CCCCN)NC(=O)[C@H](CCCCN)NC(=O)[C@H](CCSC)NC(=O)[C@H](CCCNC(=N)N)NC(=O)[C@H](Cc2c[nH]c3ccccc23)NC(=O)[C@H](CCC(N)=O)NC(=O)[C@H](Cc2c[nH]c3ccccc23)NC(=O)[C@H](CCCNC(=N)N)NC(=O)[C@H](CCCNC(=N)N)NC(=O)[C@@H](NC(=O)[C@H](CCCCN)NC(=O)[C@@H](N)Cc2ccccc2)CSSC[C@@H](C(=O)N[C@H](C(=O)N[C@@H](CCCNC(=N)N)C(=O)N[C@@H](CCCNC(=N)N)C(=O)N[C@@H](C)C(=O)N[C@@H](Cc2ccccc2)C(=O)O)C(C)C)NC(=O)[C@H]([C@@H](C)O)NC1=O [LfcinB]
[1]
  Kd: 27.3 µM
[2]
  Kd: 0.37 µM

## GLLRKGGEKIGEKLKKIGQKIKNFFQKLVPQPEQ [mCRAMP, mouse cathelicidin-related antimicrobial peptide, α-helical]
[1]
  KD: no binding; also recorded: no interaction
[2]
  KD: weak interaction
[3]
  augmentation of Sak-dependent plasminogen activation: two-fold

## melittin
[1]
  KD: weak interaction
[2]; 200–400 μM peptide into 8 μM SakΔN10, 20 mM HEPES pH 7.4, One Set of Sites model
  N (stoichiometry): ~1
[2]
  KD: weak interaction

## CC(C)C[C@H](NC(=O)[C@H](Cc1ccccc1)NC(=O)[C@@H]1CCCN1C(=O)[C@H](Cc1c[nH]c2ccccc12)NC(=O)[C@H](Cc1c[nH]c2ccccc12)NC(=O)[C@H](Cc1c[nH]c2ccccc12)NC(=O)[C@@H]1CCCN1C(=O)[C@H](Cc1ccccc1)NC(=O)[C@H](CCCNC(=N)N)NC(=O)[C@H](CCCNC(=N)N)NC(=O)[C@@H](N)C(C)C)C(=O)N[C@@H](CCCNC(=N)N)C(=O)N[C@@H](CCCNC(=N)N)C(N)=O [Tritrp]
[1]
  Kd: 11.2 µM
[2]
  Kd: 2.42 µM

B1: Mouse cathelicidin-related antimicrobial peptide (peptide)
peptide: GLLRKGGEKIGEKLKKIGQKIKNFFQKLVPQPEQ
notes: Cathelicidin-related antimicrobial peptide (CRAMP), the C-terminal peptide of the mouse cathelicidin precursor; also called mCRAMP
[4]
  Kd: ≥ 100 µM
[5]
  stoichiometry N: ~1

B2: Tritrp (C-terminally amidated tritrpticin) (peptide)
peptide: VRRFPWWWPFLRR-NH2
notes: Tritrpticin, a cathelicidin derived from porcine neutrophils; the amidated version was used
[6]
  Kd: 11.2 µM
  dH: -3.02 kcal/mol
  stoichiometry N: 1.16
[7]
  Kd: 2.42 µM
  dH: -7.01 kcal/mol
  stoichiometry N: 1.14

B3: Bovine lactoferricin (peptide)
peptide: FKCRRWQWRMKKLGAPSITCVRRAF
modifications: disulfide 3-20
notes: Lactoferricin B, the peptide derived by intestinal proteolysis of bovine lactoferrin; also called LfcinB
[8]
  Kd: 27.2 µM
[6]
  Kd: 27.3 µM
  dH: -4.68 kcal/mol
  stoichiometry N: 0.98
[7]
  Kd: 0.37 µM
  dH: -30.1 kcal/mol
  stoichiometry N: 0.99
